This note sets out measurements from publication PMC4968207.

The target of test [1] is Germline κI O18/O8 light chain variable domain (VL) (human).
The target is the same in test [2]. The source holds these as a separate data set.

In test [1], “Germline κI O18/O8 light chain variable domain (VL) (domain or fragment)” had a yield of de novo fibril formation (percent of the initial monomer in fibrils) of 93.4%. Also, in test [2], the t50 of de novo (nonseeded) ThT fibril formation of 20 µM κI, pH 2.0, 37 °C was determined as 266 h.
